T1: FcγRIIb (human, UniProt P31994 43-217)
T1 construct: extracellular domain; also called FcgRIIb; 2b
T1 sequence (looked up): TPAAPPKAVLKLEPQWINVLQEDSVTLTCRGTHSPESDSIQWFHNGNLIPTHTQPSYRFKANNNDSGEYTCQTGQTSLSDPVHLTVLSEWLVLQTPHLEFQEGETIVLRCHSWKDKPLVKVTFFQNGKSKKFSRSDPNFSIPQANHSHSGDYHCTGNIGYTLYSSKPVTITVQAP

T2: FcγRIIa H (human, UniProt P12318 34-217)
T2 construct: extracellular domain; also called FcgRIIa H; FcγRIIa type H
T2 sequence (looked up): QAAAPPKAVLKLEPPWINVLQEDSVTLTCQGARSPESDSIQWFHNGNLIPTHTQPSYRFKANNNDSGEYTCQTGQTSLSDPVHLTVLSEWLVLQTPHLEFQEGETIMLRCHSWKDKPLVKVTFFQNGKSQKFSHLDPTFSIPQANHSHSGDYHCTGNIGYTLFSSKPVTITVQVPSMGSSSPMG

B1: GpH7-A5/GpH7-B3 variant S267_19Q/GpL16-k0 (antibody, human IgG1, kappa)
heavy 1: not shown
heavy 2: not shown
light: DIVMTQSPLSLPVTPGEPASISCQASESLVHSNRNTYLHWYLQKPGQSPQLLIYKVSNRFSGVPDRFSGSGSGTDFTLKISRVEAEDVGVYYCSQNTHVPPTFGQGTKVEIERTVAAPSVFIFPPSDEQLKSGTASVVCLLNNFYPREAKVQWKVDNALQSGNSQESVTEQDSKDSTYSLSSTLTLSKADYEKHKVYACEVTHQGLSSPVTKSFNRGEC
notes: Heterodimerized antibody, alteration in one H chain only; also called He Ab S267Q
B2: GpH7-A5/GpH7-B3 variant S239_03V/GpL16-k0 (antibody, human IgG1, kappa)
heavy 1: not shown
heavy 2: not shown
light: B1 light
notes: Heterodimerized antibody, alteration in one H chain only; also called He Ab S239V
B3: GpH7-A5/GpH7-B3 variant S267_07I/GpL16-k0 (antibody, human IgG1, kappa)
heavy 1: not shown
heavy 2: not shown
light: B1 light
notes: Heterodimerized antibody, alteration in one H chain only; also called He Ab S267I
B4: GpH7-A5/GpH7-B3 variant S239_01G/GpL16-k0 (antibody, human IgG1, kappa)
heavy 1: not shown
heavy 2: not shown
light: B1 light
notes: Heterodimerized antibody, alteration in one H chain only; also called He Ab S239G
B5: GpH7-A5/GpH7-B3 variant S239_06M/GpL16-k0 (antibody, human IgG1, kappa)
heavy 1: not shown
heavy 2: not shown
light: B1 light
notes: Heterodimerized antibody, alteration in one H chain only; also called He Ab S239M
B6: GpH7-A5/GpH7-B3 variant V266_06M/GpL16-k0 (antibody, human IgG1, kappa)
heavy 1: not shown
heavy 2: not shown
light: B1 light
notes: Heterodimerized antibody, alteration in one H chain only; also called He Ab V266M
B7: GpH7-A5/GpH7-B3 variant P271_08L/GpL16-k0 (antibody, human IgG1, kappa)
heavy 1: not shown
heavy 2: not shown
light: B1 light
notes: Heterodimerized antibody, alteration in one H chain only; also called He Ab P271L
B8: GpH7-A5/GpH7-B3 variant P238_20W/GpL16-k0 (antibody, human IgG1, kappa)
heavy 1: not shown
heavy 2: not shown
light: B1 light
notes: Heterodimerized antibody, alteration in one H chain only; also called He Ab P238W
B9: GpH7-A5/GpH7-B3 variant P271_10E/GpL16-k0 (antibody, human IgG1, kappa)
heavy 1: not shown
heavy 2: not shown
light: B1 light
notes: Heterodimerized antibody, alteration in one H chain only; also called He Ab P271E
B10: GpH7-A5/GpH7-B3 variant Y300_19Q/GpL16-k0 (antibody, human IgG1, kappa)
heavy 1: not shown
heavy 2: not shown
light: B1 light
notes: Heterodimerized antibody, alteration in one H chain only; also called He Ab Y300Q
B11: GpH7-A5/GpH7-B3 variant S267_01G/GpL16-k0 (antibody, human IgG1, kappa)
heavy 1: not shown
heavy 2: not shown
light: B1 light
notes: Heterodimerized antibody, alteration in one H chain only; also called He Ab S267G
B12: GpH7-A5/GpH7-B3 variant P238_19Q/GpL16-k0 (antibody, human IgG1, kappa)
heavy 1: not shown
heavy 2: not shown
light: B1 light
notes: Heterodimerized antibody, alteration in one H chain only; also called He Ab P238Q
B13: GpH7-A5/GpH7-B3 variant Y300_10E/GpL16-k0 (antibody, human IgG1, kappa)
heavy 1: not shown
heavy 2: not shown
light: B1 light
notes: Heterodimerized antibody, alteration in one H chain only; also called He Ab Y300E
B14: GpH7-A5/GpH7-B3 variant S267_14T/GpL16-k0 (antibody, human IgG1, kappa)
heavy 1: not shown
heavy 2: not shown
light: B1 light
notes: Heterodimerized antibody, alteration in one H chain only; also called He Ab S267T
B15: GpH7-A5/GpH7-B3 variant P238_10E/GpL16-k0 (antibody, human IgG1, kappa)
heavy 1: not shown
heavy 2: not shown
light: B1 light
notes: Heterodimerized antibody, alteration in one H chain only; also called He Ab P238E
B16: GpH7-A5/GpH7-B3 variant P238_16H/GpL16-k0 (antibody, human IgG1, kappa)
heavy 1: not shown
heavy 2: not shown
light: B1 light
notes: Heterodimerized antibody, alteration in one H chain only; also called He Ab P238H
B17: GpH7-A5/GpH7-B3 variant S267_06M/GpL16-k0 (antibody, human IgG1, kappa)
heavy 1: not shown
heavy 2: not shown
light: B1 light
notes: Heterodimerized antibody, alteration in one H chain only; also called He Ab S267M
B18: GpH7-A5/GpH7-B3 variant S298_08L/GpL16-k0 (antibody, human IgG1, kappa)
heavy 1: not shown
heavy 2: not shown
light: B1 light
notes: Heterodimerized antibody, alteration in one H chain only; also called He Ab S298L
B19: GpH7-A5/GpH7-B3 variant S298_06M/GpL16-k0 (antibody, human IgG1, kappa)
heavy 1: not shown
heavy 2: not shown
light: B1 light
notes: Heterodimerized antibody, alteration in one H chain only; also called He Ab S298M
B20: GpH7-A5/GpH7-B3 variant S267_03V/GpL16-k0 (antibody, human IgG1, kappa)
heavy 1: not shown
heavy 2: not shown
light: B1 light
notes: Heterodimerized antibody, alteration in one H chain only; also called He Ab S267V
B21: GpH7-A5/GpH7-B3 variant S239_07I/GpL16-k0 (antibody, human IgG1, kappa)
heavy 1: not shown
heavy 2: not shown
light: B1 light
notes: Heterodimerized antibody, alteration in one H chain only; also called He Ab S239I

The binders below were run against T1, FcγRIIb (assay: SPR (Biacore), antibody captured, FcγR analyte; binding relative to GpH7-A5/GpH7-B3/GpL16-k0 = 100).

He/Con_2b	Binder
218 % of control	B1
108 % of control	B2
192 % of control	B3
144 % of control	B4
101 % of control	B5
251 % of control	B6
103 % of control	B7
123 % of control	B8
109 % of control	B9
108 % of control	B10
105 % of control	B11
110 % of control	B12
134 % of control	B13
104 % of control	B14
232 % of control	B15
115 % of control	B16
210 % of control	B17
108 % of control	B18
102 % of control	B19
192 % of control	B20
107 % of control	B21

Each binder was assayed against T2, FcγRIIa H in the same assay as above.

He/Con_2aH	Binder
61.3 % of control	B1
91 % of control	B2
34.7 % of control	B3
97 % of control	B4
98.6 % of control	B5
83.9 % of control	B6
86.7 % of control	B7
59.5 % of control	B8
63.1 % of control	B9
96.1 % of control	B10
71.3 % of control	B11
56.4 % of control	B12
97.2 % of control	B13
63.3 % of control	B14
77.1 % of control	B15
45.9 % of control	B16
34.3 % of control	B17
85 % of control	B18
98.1 % of control	B19
50.8 % of control	B20
91.5 % of control	B21
